# Literature values in paper PMC10330121.
# How the values were obtained:
# [1] = biological target: VRK1-K4me3 (Homo sapiens) (UniProt Q99986)
# PAF15 (Homo sapiens) = PAF15 (Homo sapiens) (UniProt Q15004)
# [2] = biological target: histone H3 N-terminal tail (Homo sapiens) (UniProt P68431)
# UHRF1 PHD, sequence (Q96T88 307-369): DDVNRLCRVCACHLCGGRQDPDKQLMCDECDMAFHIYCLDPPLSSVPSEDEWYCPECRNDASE
# VRK1-K4me3 (Homo sapiens), sequence (Q99986 whole entry): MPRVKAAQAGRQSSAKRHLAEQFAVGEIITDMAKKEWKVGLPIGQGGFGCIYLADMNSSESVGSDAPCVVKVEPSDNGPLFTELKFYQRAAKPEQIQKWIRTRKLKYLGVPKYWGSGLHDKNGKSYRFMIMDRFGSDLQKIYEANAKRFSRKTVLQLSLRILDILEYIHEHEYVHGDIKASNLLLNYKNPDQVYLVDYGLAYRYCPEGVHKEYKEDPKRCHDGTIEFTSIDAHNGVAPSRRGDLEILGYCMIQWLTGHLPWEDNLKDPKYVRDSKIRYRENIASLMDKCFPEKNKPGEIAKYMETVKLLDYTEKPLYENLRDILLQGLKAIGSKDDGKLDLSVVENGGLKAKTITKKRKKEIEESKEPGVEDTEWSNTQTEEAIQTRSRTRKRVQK
# PHF8 PHD-Jumonji, sequence (Q9UPP1 37-483): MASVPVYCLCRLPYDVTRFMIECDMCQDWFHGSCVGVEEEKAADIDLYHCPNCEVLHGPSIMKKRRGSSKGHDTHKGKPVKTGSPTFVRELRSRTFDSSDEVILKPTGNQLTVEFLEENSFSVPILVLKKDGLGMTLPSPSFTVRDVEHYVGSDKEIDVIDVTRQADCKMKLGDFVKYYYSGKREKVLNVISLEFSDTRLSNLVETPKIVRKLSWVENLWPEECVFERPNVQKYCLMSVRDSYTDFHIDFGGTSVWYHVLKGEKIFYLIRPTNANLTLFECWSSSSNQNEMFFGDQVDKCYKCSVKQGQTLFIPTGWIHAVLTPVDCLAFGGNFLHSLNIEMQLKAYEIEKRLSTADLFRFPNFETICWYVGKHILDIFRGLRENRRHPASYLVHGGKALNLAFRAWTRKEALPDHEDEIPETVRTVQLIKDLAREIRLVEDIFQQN
# PAF15 (Homo sapiens), sequence (Q15004 whole entry): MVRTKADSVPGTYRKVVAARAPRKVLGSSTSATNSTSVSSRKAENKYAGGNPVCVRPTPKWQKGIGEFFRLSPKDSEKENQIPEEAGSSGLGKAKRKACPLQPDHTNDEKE
Kd [1],Kd (PAF15 (Homo sapiens)),Kd [2],Substance
0.042 µM,–,–,PHF8 PHD-Jumonji (from UniProt Q9UPP1)
–,2 µM,2 µM,UHRF1 PHD (from UniProt Q96T88)
